# US20230357348A1 (AstraZeneca / MedImmune, published 2023)
# Starred links: 1 amine or outer side, 2 acyl side, 3 side chain; linkers in the order of their positions; H or OH if unused. Non-standard residues stand in square brackets, D forms with d. Groups on a side chain read outwards from the residue. No end group written: not given here. *: point of attachment. C20 diacid = O=C(O)CCCCCCCCCCCCCCCCCCC(=O)*; C18 diacid = O=C(O)CCCCCCCCCCCCCCCCC(=O)*; γGlu = O=C(O)[C@H](CCC(=O)[*:2])N[*:1]; αMeF = C[C@](N)(Cc1ccccc1)C(=O)O; AEEA = NCCOCCOCC(=O)O; Aib = CC(C)(N)C(=O)O
# B1: Peptide 473 (peptide)
# peptide: H[Aib]QGTFTSDVSK[αMeF]LDRK([AEEA-AEEA-γGlu-C18 diacid])RARDFVQWLL[Aib]E-NH2
# modifications: N-terminus assumed
# SMILES: CC(C)C[C@H](NC(=O)[C@H](Cc1c[nH]c2ccccc12)NC(=O)[C@H](CCC(N)=O)NC(=O)[C@@H](NC(=O)[C@H](Cc1ccccc1)NC(=O)[C@H](CC(=O)O)NC(=O)[C@H](CCCNC(=N)N)NC(=O)[C@H](C)NC(=O)[C@H](CCCNC(=N)N)NC(=O)[C@H](CCCCNC(=O)COCCOCCNC(=O)COCCOCCNC(=O)CC[C@H](NC(=O)CCCCCCCCCCCCCCCCC(=O)O)C(=O)O)NC(=O)[C@H](CCCNC(=N)N)NC(=O)[C@H](CC(=O)O)NC(=O)[C@H](CC(C)C)NC(=O)[C@](C)(Cc1ccccc1)NC(=O)[C@H](CCCCN)NC(=O)[C@H](CO)NC(=O)[C@@H](NC(=O)[C@H](CC(=O)O)NC(=O)[C@H](CO)NC(=O)[C@@H](NC(=O)[C@H](Cc1ccccc1)NC(=O)[C@@H](NC(=O)CNC(=O)[C@H](CCC(N)=O)NC(=O)C(C)(C)NC(=O)[C@@H](N)Cc1c[nH]cn1)[C@@H](C)O)[C@@H](C)O)C(C)C)C(C)C)C(=O)N[C@@H](CC(C)C)C(=O)NC(C)(C)C(=O)N[C@@H](CCC(=O)O)C(N)=O
# B2: Peptide 472 (peptide)
# peptide: H[Aib]QGTFTSDVSK[αMeF]LDKK([AEEA-AEEA-γGlu-C18 diacid])RARDFVQWLL[Aib]E-NH2
# modifications: N-terminus assumed
# SMILES: CC(C)C[C@H](NC(=O)[C@H](Cc1c[nH]c2ccccc12)NC(=O)[C@H](CCC(N)=O)NC(=O)[C@@H](NC(=O)[C@H](Cc1ccccc1)NC(=O)[C@H](CC(=O)O)NC(=O)[C@H](CCCNC(=N)N)NC(=O)[C@H](C)NC(=O)[C@H](CCCNC(=N)N)NC(=O)[C@H](CCCCNC(=O)COCCOCCNC(=O)COCCOCCNC(=O)CC[C@H](NC(=O)CCCCCCCCCCCCCCCCC(=O)O)C(=O)O)NC(=O)[C@H](CCCCN)NC(=O)[C@H](CC(=O)O)NC(=O)[C@H](CC(C)C)NC(=O)[C@](C)(Cc1ccccc1)NC(=O)[C@H](CCCCN)NC(=O)[C@H](CO)NC(=O)[C@@H](NC(=O)[C@H](CC(=O)O)NC(=O)[C@H](CO)NC(=O)[C@@H](NC(=O)[C@H](Cc1ccccc1)NC(=O)[C@@H](NC(=O)CNC(=O)[C@H](CCC(N)=O)NC(=O)C(C)(C)NC(=O)[C@@H](N)Cc1c[nH]cn1)[C@@H](C)O)[C@@H](C)O)C(C)C)C(C)C)C(=O)N[C@@H](CC(C)C)C(=O)NC(C)(C)C(=O)N[C@@H](CCC(=O)O)C(N)=O
# B3: Peptide 474 (peptide)
# peptide: H[Aib]QGTFTSDVSK[αMeF]LDTK([AEEA-AEEA-γGlu-C18 diacid])RARDFVQWLLA[Aib]G-NH2
# modifications: N-terminus assumed
# SMILES: CC(C)C[C@H](NC(=O)[C@H](CC(C)C)NC(=O)[C@H](Cc1c[nH]c2ccccc12)NC(=O)[C@H](CCC(N)=O)NC(=O)[C@@H](NC(=O)[C@H](Cc1ccccc1)NC(=O)[C@H](CC(=O)O)NC(=O)[C@H](CCCNC(=N)N)NC(=O)[C@H](C)NC(=O)[C@H](CCCNC(=N)N)NC(=O)[C@H](CCCCNC(=O)COCCOCCNC(=O)COCCOCCNC(=O)CC[C@H](NC(=O)CCCCCCCCCCCCCCCCC(=O)O)C(=O)O)NC(=O)[C@@H](NC(=O)[C@H](CC(=O)O)NC(=O)[C@H](CC(C)C)NC(=O)[C@](C)(Cc1ccccc1)NC(=O)[C@H](CCCCN)NC(=O)[C@H](CO)NC(=O)[C@@H](NC(=O)[C@H](CC(=O)O)NC(=O)[C@H](CO)NC(=O)[C@@H](NC(=O)[C@H](Cc1ccccc1)NC(=O)[C@@H](NC(=O)CNC(=O)[C@H](CCC(N)=O)NC(=O)C(C)(C)NC(=O)[C@@H](N)Cc1c[nH]cn1)[C@@H](C)O)[C@@H](C)O)C(C)C)[C@@H](C)O)C(C)C)C(=O)N[C@@H](C)C(=O)NC(C)(C)C(=O)NCC(N)=O
# B4: Peptide 470 (peptide)
# peptide: H[Aib]QGTFTSDVSK[αMeF]LDKK([AEEA-AEEA-γGlu-C20 diacid])RARDFVQWLL[Aib]E-NH2
# modifications: N-terminus assumed
# SMILES: CC(C)C[C@H](NC(=O)[C@H](Cc1c[nH]c2ccccc12)NC(=O)[C@H](CCC(N)=O)NC(=O)[C@@H](NC(=O)[C@H](Cc1ccccc1)NC(=O)[C@H](CC(=O)O)NC(=O)[C@H](CCCNC(=N)N)NC(=O)[C@H](C)NC(=O)[C@H](CCCNC(=N)N)NC(=O)[C@H](CCCCNC(=O)COCCOCCNC(=O)COCCOCCNC(=O)CC[C@H](NC(=O)CCCCCCCCCCCCCCCCCCC(=O)O)C(=O)O)NC(=O)[C@H](CCCCN)NC(=O)[C@H](CC(=O)O)NC(=O)[C@H](CC(C)C)NC(=O)[C@](C)(Cc1ccccc1)NC(=O)[C@H](CCCCN)NC(=O)[C@H](CO)NC(=O)[C@@H](NC(=O)[C@H](CC(=O)O)NC(=O)[C@H](CO)NC(=O)[C@@H](NC(=O)[C@H](Cc1ccccc1)NC(=O)[C@@H](NC(=O)CNC(=O)[C@H](CCC(N)=O)NC(=O)C(C)(C)NC(=O)[C@@H](N)Cc1c[nH]cn1)[C@@H](C)O)[C@@H](C)O)C(C)C)C(C)C)C(=O)N[C@@H](CC(C)C)C(=O)NC(C)(C)C(=O)N[C@@H](CCC(=O)O)C(N)=O
# B5: Peptide 475 (peptide)
# peptide: H[Aib]QGTFTSDVSK[αMeF]LDTK([AEEA-AEEA-γGlu-C20 diacid])RARDFVQWLLA[Aib]G-NH2
# modifications: N-terminus assumed
# SMILES: CC(C)C[C@H](NC(=O)[C@H](CC(C)C)NC(=O)[C@H](Cc1c[nH]c2ccccc12)NC(=O)[C@H](CCC(N)=O)NC(=O)[C@@H](NC(=O)[C@H](Cc1ccccc1)NC(=O)[C@H](CC(=O)O)NC(=O)[C@H](CCCNC(=N)N)NC(=O)[C@H](C)NC(=O)[C@H](CCCNC(=N)N)NC(=O)[C@H](CCCCNC(=O)COCCOCCNC(=O)COCCOCCNC(=O)CC[C@H](NC(=O)CCCCCCCCCCCCCCCCCCC(=O)O)C(=O)O)NC(=O)[C@@H](NC(=O)[C@H](CC(=O)O)NC(=O)[C@H](CC(C)C)NC(=O)[C@](C)(Cc1ccccc1)NC(=O)[C@H](CCCCN)NC(=O)[C@H](CO)NC(=O)[C@@H](NC(=O)[C@H](CC(=O)O)NC(=O)[C@H](CO)NC(=O)[C@@H](NC(=O)[C@H](Cc1ccccc1)NC(=O)[C@@H](NC(=O)CNC(=O)[C@H](CCC(N)=O)NC(=O)C(C)(C)NC(=O)[C@@H](N)Cc1c[nH]cn1)[C@@H](C)O)[C@@H](C)O)C(C)C)[C@@H](C)O)C(C)C)C(=O)N[C@@H](C)C(=O)NC(C)(C)C(=O)NCC(N)=O
# Target: human GLP-1 receptor (hGLP-1R) (human, UniProt P43220 24-463)
# Assay: cell-based or functional assay
row,hGLP-1R EC50 (pM),Binder
1,11.5 pM,B1
2,7.63 pM,B2
3,102 pM,H[Aib]QGTFTSDVSK[αMeF]LDRK([AEEA-AEEA-γGlu-C20 diacid])RARDFVQWLL[Aib]E-NH2 [Peptide 471]
4,8.04 pM,B3
5,55.9 pM,B4
6,6.75 pM,B5

# Target: human glucagon receptor (hGCGR) (human, UniProt P47871 26-477)
# Sequence (P47871 26-477): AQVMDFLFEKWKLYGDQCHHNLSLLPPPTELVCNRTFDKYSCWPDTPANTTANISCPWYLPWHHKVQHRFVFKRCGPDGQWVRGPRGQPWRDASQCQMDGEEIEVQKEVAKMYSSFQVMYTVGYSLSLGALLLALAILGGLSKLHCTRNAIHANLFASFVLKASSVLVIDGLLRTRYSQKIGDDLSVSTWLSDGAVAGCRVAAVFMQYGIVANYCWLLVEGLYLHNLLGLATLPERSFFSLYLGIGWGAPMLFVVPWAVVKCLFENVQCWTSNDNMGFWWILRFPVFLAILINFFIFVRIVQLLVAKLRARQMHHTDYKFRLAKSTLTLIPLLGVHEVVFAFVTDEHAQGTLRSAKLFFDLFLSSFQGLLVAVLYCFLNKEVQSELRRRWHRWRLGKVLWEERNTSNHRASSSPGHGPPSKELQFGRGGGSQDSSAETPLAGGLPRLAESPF
# Assay: cell-based or functional assay
row,hGluc-R EC50 (pM),Binder
1,14.1 pM,B1
2,11.1 pM,B2
3,63.6 pM,H[Aib]QGTFTSDVSK[αMeF]LDRK([AEEA-AEEA-γGlu-C20 diacid])RARDFVQWLL[Aib]E-NH2 [Peptide 471]
4,56.9 pM,B3
5,30.3 pM,B4
6,61.5 pM,B5
